Paper PMC7492729, “CsrA-Mediated Translational Activation of ymdA Expression in Escherichia coli”

What was measured:
Details in all cases: protein: recombinant; tags: His6 (C-terminal, as named CsrA-H6); chain copies: 2; label: 5'-32P
CsrA-H6 [1] = molecular target: T1, CsrA-H6 (Escherichia coli, UniProt P69913 1-61); experiment: EMSA; 10 mM MgCl2, 40 ng yeast tRNA; 10 mM Tris-HCl pH 7.5, 10 mM MgCl2, 100 mM KCl, 40 ng yeast tRNA per 10 ul, 7.5% glycerol, 0.1 mg/ml xylene cyanol, 0.1 nM RNA (2 nM RNA plus 1 ug acetylated BSA for footprint), 37 C 30 min
T1 sequence (P69913 whole entry): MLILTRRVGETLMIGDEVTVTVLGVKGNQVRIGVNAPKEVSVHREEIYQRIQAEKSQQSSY

CsrA-H6 [2] = molecular target: T1, CsrA-H6; experiment: RNase T1 footprinting; 10 mM MgCl2; BS1 and BS2 protected, BS* and SD GGA not; 10 mM Tris-HCl pH 7.5, 10 mM MgCl2, 100 mM KCl, 40 ng yeast tRNA per 10 ul, 7.5% glycerol, 0.1 mg/ml xylene cyanol, 0.1 nM RNA (2 nM RNA plus 1 ug acetylated BSA for footprint), 37 C 30 min
CsrA-H6 [3] = molecular target: T1, CsrA-H6; experiment: RNase T1 footprinting; 10 mM MgCl2; binds BS1 in absence of BS2; 10 mM Tris-HCl pH 7.5, 10 mM MgCl2, 100 mM KCl, 40 ng yeast tRNA per 10 ul, 7.5% glycerol, 0.1 mg/ml xylene cyanol, 0.1 nM RNA (2 nM RNA plus 1 ug acetylated BSA for footprint), 37 C 30 min

B1: ymdA leader RNA (EMSA) (structured_RNA)
RNA: AAGAUGAAUCUGGAGAGAAUGGUCUGCUGCGAAUCAGCCAACCUGAAAGUAUGGAUAACACAACCCUCAAGGAUGACUAAUCAUUGAGGAAAUAGAAUAAA
Kd (CsrA-H6 [1]): 48 ± 3 nM

B2: ymdA leader RNA (footprint) (structured_RNA)
RNA: GUCUUAAUUUGUUGAAAUAUCGAGCAUAAGAUGAAUCUGGAGAGAAUGGUCUGCUGCGAAUCAGCCAACCUGAAAGUAUGGAUAACACAACCCUCAAGGAUGACUAAUCAUUGAGGAAAUAGAAUAAA
binding result (CsrA-H6 [2]): binds

B3: ymdA leader RNA BS2 mutant (footprint) (structured_RNA)
RNA: GUCUUAAUUUGUUGAAAUAUCGAGCAUAAGAUGAAUCUGGAGAGAAUGGUCUGCUGCGAAUCAGCCAACCUGAAAGUAUGGAUAACACAACCCUCAAAGAUGACUAAUCAUUGAGGAAAUAGAAUAAA
binding result (CsrA-H6 [3]): binds
